Assay results: US20140112930A1 (published 2014)

T1: hAng-1-WT (human, UniProt Q15389 20-498, limits assumed)
T1 construct: a tag is not mentioned there; also called full-length wild-type human Ang-1
T1 sequence (looked up): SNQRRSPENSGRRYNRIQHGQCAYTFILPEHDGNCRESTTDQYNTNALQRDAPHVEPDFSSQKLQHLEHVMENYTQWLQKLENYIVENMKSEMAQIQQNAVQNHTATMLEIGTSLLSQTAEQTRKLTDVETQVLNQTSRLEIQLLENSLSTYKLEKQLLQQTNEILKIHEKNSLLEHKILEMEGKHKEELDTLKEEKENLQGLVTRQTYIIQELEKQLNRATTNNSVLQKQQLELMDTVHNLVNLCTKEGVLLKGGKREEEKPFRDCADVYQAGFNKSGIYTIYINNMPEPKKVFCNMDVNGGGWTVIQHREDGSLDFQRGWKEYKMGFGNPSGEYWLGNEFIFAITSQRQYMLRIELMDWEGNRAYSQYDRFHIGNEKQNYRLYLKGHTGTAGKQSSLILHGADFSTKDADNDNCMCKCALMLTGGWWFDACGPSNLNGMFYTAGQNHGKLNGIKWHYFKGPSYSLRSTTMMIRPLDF


Experiments:
Human Ang-2FD-hFc = molecular target: T2, Human Ang-2FD-hFc (human); experiment: blocking ELISA, 16.67 nM antibody, Ang-2FD-hFc to coated hTie-2-mFc
T2 construct: also called dimeric human Ang-2FD; human Ang-2FD protein conjugated to human IgG
T2 sequence (chain, as listed by the source limits assumed): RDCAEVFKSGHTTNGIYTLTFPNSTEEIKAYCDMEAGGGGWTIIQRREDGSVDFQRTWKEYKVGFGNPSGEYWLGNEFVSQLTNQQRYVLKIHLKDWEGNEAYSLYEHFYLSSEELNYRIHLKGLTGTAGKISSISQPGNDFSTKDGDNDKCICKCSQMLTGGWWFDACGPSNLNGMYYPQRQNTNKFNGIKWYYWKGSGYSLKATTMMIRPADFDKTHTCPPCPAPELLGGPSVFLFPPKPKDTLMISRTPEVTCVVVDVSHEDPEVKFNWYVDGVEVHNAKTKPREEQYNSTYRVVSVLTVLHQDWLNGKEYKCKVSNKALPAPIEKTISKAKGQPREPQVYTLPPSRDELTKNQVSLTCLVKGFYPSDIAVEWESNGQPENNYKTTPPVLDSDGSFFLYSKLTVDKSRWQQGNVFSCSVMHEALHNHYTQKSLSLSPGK
Description: (§1) The plate was then blocked with PBS (Irvine Scientific, Santa Ana, Calif.) containing 0.5% BSA (Sigma-Aldrich Corp., St. Louis, Mo.) for one hour at room temperature. […] Human, mouse or monkey Ang-2FD protein conjugated to human IgG (Ang-2FD-hFc) were added to final concentrations of 2 nM, 8 nM, or 2 nM respectively and incubated for one hour at room temperature. The antibody/Ang-2FD-Fc mixture was then added to the plate containing hTie-2-mFc and incubated for one hour at room temperature. Detection of Ang-2FD-hFc bound to hTie-2-mFc protein was determined with Horse-Radish Peroxidase (HRP) conjugated to a-human IgG antibody (Jackson Immuno Research Lab, West Grove, Pa.) and developed by standard colorimetric response using tetramethylbenzidine (TMB) substrate (BD Biosciences, San Jose, Calif.). Absorbance was read at OD₄₅₀ for 0.1 sec.

Monkey Ang-2FD-hFc = molecular target: T3, Monkey Ang-2FD-hFc (monkey (Macca fascicularis)); experiment: as above
T3 construct: also called dimeric monkey Ang-2FD
T3 sequence (chain, as listed by the source limits assumed): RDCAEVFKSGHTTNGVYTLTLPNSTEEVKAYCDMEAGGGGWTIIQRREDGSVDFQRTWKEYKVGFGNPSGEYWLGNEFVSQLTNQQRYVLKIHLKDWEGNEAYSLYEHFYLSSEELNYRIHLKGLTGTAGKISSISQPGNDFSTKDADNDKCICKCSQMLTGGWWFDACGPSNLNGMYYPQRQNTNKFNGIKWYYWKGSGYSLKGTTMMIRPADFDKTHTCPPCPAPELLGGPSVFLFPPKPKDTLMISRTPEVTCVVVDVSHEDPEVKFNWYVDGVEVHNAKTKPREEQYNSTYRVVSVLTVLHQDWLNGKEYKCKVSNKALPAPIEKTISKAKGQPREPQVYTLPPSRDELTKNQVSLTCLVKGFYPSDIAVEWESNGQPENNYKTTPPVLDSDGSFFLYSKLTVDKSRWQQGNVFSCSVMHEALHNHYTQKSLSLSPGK
Description: as §1

Mouse Ang-2FD-hFc = molecular target: T4, Mouse Ang-2FD-hFc (mouse (Mus musculus)); experiment: as above
T4 construct: also called dimeric mouse Ang-2FD
T4 sequence (chain, as listed by the source limits assumed): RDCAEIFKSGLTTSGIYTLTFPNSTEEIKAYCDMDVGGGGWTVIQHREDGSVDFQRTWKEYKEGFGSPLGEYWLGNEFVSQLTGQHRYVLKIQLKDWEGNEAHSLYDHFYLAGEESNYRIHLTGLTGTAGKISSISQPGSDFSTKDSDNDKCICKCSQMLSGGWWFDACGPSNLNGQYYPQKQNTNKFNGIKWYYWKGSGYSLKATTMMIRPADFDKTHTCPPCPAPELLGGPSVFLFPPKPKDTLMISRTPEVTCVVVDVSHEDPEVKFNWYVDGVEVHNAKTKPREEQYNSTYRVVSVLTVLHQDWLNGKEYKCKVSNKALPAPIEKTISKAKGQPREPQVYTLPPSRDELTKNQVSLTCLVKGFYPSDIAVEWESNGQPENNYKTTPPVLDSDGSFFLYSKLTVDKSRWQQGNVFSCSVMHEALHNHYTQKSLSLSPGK
Description: as §1

hAng-1-WT [1] = molecular target: T1, hAng-1-WT; experiment: SPR, 1 uM blocker premixed with 10 nM hAng-1-WT, over hTie-2-mFc surface; RU of hAng-1 bound
Description: (§2) In this experiment, a human Tie-2 full-length extracellular domain construct (hTie-2-mFc-ecto) was amine-coupled on a BIACORE™ chip to create a receptor coated surface. […] The equilibrated solutions were injected over the receptor surfaces at 5 μL/min for 5 minutes at 25° C.

hAng-1-WT [2] = molecular target: T1, hAng-1-WT; experiment: SPR, 1 uM blocker premixed with 10 nM hAng-1-WT, over hTie-2-mFc surface
Description: as §2

Biotin-hBA2 = molecular target: T5, Biotin-hBA2 (human, biotinylated (sites not given)); experiment: blocking ELISA, biotin-hBA2 to hTie-2
T5 construct: hBA2 consists of two dimers; also called biotinylated hBA2; human bow-Ang2
T5 sequence (chain, as listed by the source limits assumed): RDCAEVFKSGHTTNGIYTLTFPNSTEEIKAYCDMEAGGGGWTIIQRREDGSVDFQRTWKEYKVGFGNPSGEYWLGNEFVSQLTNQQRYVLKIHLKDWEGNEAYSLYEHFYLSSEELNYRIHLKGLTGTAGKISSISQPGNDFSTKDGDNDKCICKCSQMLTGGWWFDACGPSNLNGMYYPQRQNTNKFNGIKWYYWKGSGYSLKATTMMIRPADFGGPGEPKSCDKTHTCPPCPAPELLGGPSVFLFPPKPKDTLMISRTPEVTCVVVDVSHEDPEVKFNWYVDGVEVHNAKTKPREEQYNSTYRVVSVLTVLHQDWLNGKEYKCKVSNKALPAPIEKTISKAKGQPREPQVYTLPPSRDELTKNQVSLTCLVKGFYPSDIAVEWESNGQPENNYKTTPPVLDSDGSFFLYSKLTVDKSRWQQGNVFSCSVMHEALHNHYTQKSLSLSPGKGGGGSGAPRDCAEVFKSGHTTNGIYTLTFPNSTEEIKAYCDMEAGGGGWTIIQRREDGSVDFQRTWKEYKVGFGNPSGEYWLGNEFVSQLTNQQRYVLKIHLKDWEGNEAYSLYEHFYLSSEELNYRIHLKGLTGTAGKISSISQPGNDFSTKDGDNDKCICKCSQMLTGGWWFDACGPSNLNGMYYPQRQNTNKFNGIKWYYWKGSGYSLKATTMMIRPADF

[3] = molecular target: T6, Dimeric Mouse Ang-2FD conjugated to human IgG1 (mouse (Mus musculus); human); experiment: SPR, captured Ab, 25°C
T6 construct: also called Mouse Ang-2FD-hFc
Description: (§3) Each selected antibody or control construct was captured at a flow rate of 40 μL/min for 1 minute on a goat anti-human kappa polyclonal antibody surface created through direct chemical coupling to a BIACORE™ chip to form a captured antibody surface.

[4] = molecular target: T6, Dimeric Mouse Ang-2FD conjugated to …; experiment: SPR, captured Ab, 37°C
Description: as §3

[5] = molecular target: T6, Dimeric Mouse Ang-2FD conjugated to …; experiment: SPR, captured Ab, RT
How it was run: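 Antibody captured on amine-coupled goat anti-mouse IgG, anti-human κ or anti-human IgG polyclonal surfaces on a CM5 chip; antigen binding and dissociation followed in real time at room temperature. KD and complex dissociation half-life derived by kinetic analysis.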

| Percent Blocking of Ang-2FD Binding to Tie-2 (Human Ang-2FD-hFc) [%] | Percent Blocking of Ang-2FD Binding to Tie-2 (Monkey Ang-2FD-hFc) [%] | Percent Blocking of Ang-2FD Binding to Tie-2 (Mouse Ang-2FD-hFc) [%] | RU (average) (hAng-1-WT [1]) [RU] | Percent of Negative Control Binding (hAng-1-WT [2]) [%] | IC50 (Biotin-hBA2) [nM] | Kd [3] [nM] | T1/2 [3] [h] | Kd [4] [nM] | T1/2 [4] [h] | Kd [5] [nM] | T1/2 [5] [h] | Binder |
| --- | --- | --- | --- | --- | --- | --- | --- | --- | --- | --- | --- | --- |
| 97.1 | 99.8 | 95.9 | 140 | 83 | 0.008 |  |  |  |  |  |  | H1H706P (antibody, human IgG1, V domains shown, Human IgG1) VH: QVQLVESGGGVVQPGRSLRLSCAASGFTFSSYGMHWVRQAPDKGLEWVAVKWDDGSNKYYADSVKGRFTISRDNSKNTLYLQMNSLRAEDTAVYYCAREGPYDFYSGYGAFDIWGQGTMVTVSS VL: DIQMTQSPSSLSASVGDRVTITCRASQGISNYLAWFQQKPGKAPKSLIYAASSLQSGVPSKFSGSGSGTDFTLTISSLQPEDFATYYCQQYNSYPRTFGQGTKVEIK |
| 96.6 | 96.6 | 97.1 | 57 | 34 | 0.004 |  |  |  |  |  |  | H1H724N (antibody, V domains shown) VH: QVQLVESGGGVVQPGRSLRLSCAASGFTLSNYGMHWVRQAPGKGLEWVAVIWHDGSNTYYADSVKGRFTISRDNSKNTLYLQMNSLRAEDTAVYYCTREGLDFWSGYYPNWFDPWGQGTLVTVSS VL: DIQMTQSPSSLSASVGDRVTITCRASQGIRNDLGWYQQKPGKAPKRLIYAASNLQGGVPSRFSGSGSGTEFTLTISSLQPEDFAAYYCLQHNIYPLTFGGGTKVEIK |
| 97.2 | 99.6 | 98 |  |  | 0.017 |  |  |  |  |  |  | H1H690P (antibody, human IgG1, V domains shown, Human IgG1) VH: EVQLVESGGGLVQPGESLRLSCAASGFTFSSYAMSWVRQGPGKGLEWVSSITGSGDTTYYADSVKGRFTISRDNSKNTLYLHMNSLRAEDTAVYYCAKDFLDYSTYLAFDLWGQGTMVTVSS VL: EIVLTQSPATLSLSPGERATLSCRASQSVSSYLTWYQQKPGQAPRLLSYDASNRATGIPARFSGSGSGTDFTLTISSLEPEDFAVYYCQQRSNWPLTFGGGTKVEIK |
|  |  |  | 71 | 42 |  |  |  |  |  |  |  | hTie-2-mFc (Fc fusion, also called hTie-2-mFc-ecto; human Tie-2 conjugated to mouse IgG) AMDLILINSLPLVSDAETSLTCIASGWRPHEPITIGRDFEALMNQHQDPLEVTQDVTREWAKKVVWKREKASKINGAYFCEGRVRGEAIRIRTMKMRQQASFLPATLTMTVDKGDNVNISFKKVLIKEEDAVIYKNGSFIHSVPRHEVPDILEVHLPHAQPQDAGVYSARYIGGNLFTSAFTRLIVRRCEAQKWGPECNHLCTACMNNGVCHEDTGECICPPGFMGRTCEKACELHTFGRTCKERCSGQEGCKSYVFCLPDPYGCSCATGWKGLQCNEACHPGFYGPDCKLRCSCNNGEMCDRFQGCLCSPGWQGLQCEREGIPRMTPKIVDLPDHIEVNSGKFNPICKASGWPLPTNEEMTLVKPDGTVLHPKDFNHTDHFSVAIFTIHRILPPDSGVWVCSVNTVAGMVEKPFNISVKVLPKPLNAPNVIDTGHNFAVINISSEPYFGDGPIKSKKLLYKPVNHYEAWQHIQVTNEIVTLNYLEPRTEYELCVQLVRRGEGGEGHPGPVRRFTTASIGLPPPRGLNLLPKSQTTLNLTWQPIFPSSEDDFYVEVERRSVQKSDQQNIKVPGNLTSVLLNNLHPREQYVVRARVNTKAQGEWSEDLTAWTLSDILPPQPENIKISNITHSSAVISWTILDGYSISSITIRYKVQGKNEDQHVDVKIKNATIIQYQLKGLEPETAYQVDIFAENNIGSSNPAFSHELVTLPESQAPADLGGGKGPGEPRGPTIKPCPPCKCPAPNLLGGPSVFIFPPKIKDVLMISLSPIVTCVVVDVSEDDPDVQISWFVNNVEVHTAQTQTHREDYNSTLRVVSALPIQHQDWMSGKEFKCKVNNKDLPAPIERTISKPKGSVRAPQVYVLPPPEEEMTKKQVTLTCMVTDFMPEDIYVEWTNNGKTELNYKNTEPVLDSDGSYFMYSKLRVEKKNWVERNSYSCSVVHEGLHNHHTTKSFSRTPGK |
|  |  |  |  |  |  | 0.0651 | 3.47 | 0.0939 | 1.07 | 0.148 | 2.14 | H1H685P (antibody, V domains shown) VH: EVQLVESGGGLVQPGGSLRLSCAASGFTFSSYDIHWVRQATGKGLEWVSAIGPAGDTYYPGSVKGRFTISRENAKNSLYLQMNSLRAGDTAVYYCARGLITFGGLIAPFDYWGQGTLVTVSS VL: EIVLTQSPGTLSLSPGERATLSCRASQSVSSTYLAWYQQKPGQAPRLLIYGASSRATGIPDRFSGSGSGTDFTLTISRLEPEDFAVYYCQHYDNSQTFGQGTKVEIK |
| 97.4 | 99.8 | 96.7 |  |  |  |  |  |  |  |  |  | H1H691P (antibody, human IgG1, V domains shown, Human IgG1) VH: EVQLVESGGGLVQPGRSLRLSCAASGFTFDDYAMHWVRQAPGKGLEWVSGISWNSGDIGYADSVKGRFTISRDNAKNSLYLQMNSLRAQDTALYYCAKAYGDYYYFYGMDVWGQGTTVTVS VL: EIVLTQSPGTLSLSPGERATLSCRASQSVSSSYLAWYQQKPGQAPRLLIFSASSRATGIPDRFSGSGSGTDFTLTISRLEPEDFAVYYCQQYDNSLTFGGGTKVEIK |
